Laboratory results reported in patent US20260028400A1.

Assays:
[1] = biological target: human- or mouse-derived ROR1 antigen (Sino Biological); test: ELISA on coated ROR1 antigen (human or mouse not said), OD450
[2] = biological target: human- or mouse-derived ROR1 antigen (Sino Biological); test: ELISA on coated ROR1 antigen (Sino Biological), conjugate against parent antibody P015042
[3] = biological target: human- or mouse-derived ROR1 antigen (Sino Biological); test: ELISA on coated ROR1 antigen (Sino Biological), conjugate against parent antibody P015004
[4] = biological target: human- or mouse-derived ROR1 antigen (Sino Biological); test: ELISA on coated ROR1 antigen (Sino Biological), conjugate against parent antibody P015044

EC50 (read off the curve) [1] [nM] | Affinity compared to parent antibody (%) [2] [%] | Affinity compared to parent antibody (%) [3] [%] | Affinity compared to parent antibody (%) [4] [%] | Binder
0.5 | – | – | – | P015042 (antibody, V domains shown) VH: EVQLLESGGGLVQPGGSLRLSCAASGFTFSDYAMSWVRQAPGKGLEWVSVISSDGGSIYYADSVKGRFTISRDNSKNTLYLQMNSLRAEDTAVYYCAKDRSRDMEVDFDYWGQGTLVTVSS VL: QSVLTQPPSASGTPGQRVTISCSGSSSNIGSNYVTWYQQLPGTAPKLLIYDSSQRPSGVPDRFSGSKSGTSASLAISGLRSEDEADYYCGTWDYSLSGYVFGGGTKLTVL
2 | 99.3 | – | – | P015042-vc-PAB-MMAE (antibody, IgG1, V domains shown, maleimidocaproyl-valine-citrulline-p-aminobenzyloxycarbonyl monomethyl auristatin E on cysteine sulfhydryls of reduced disulfides; positions not given; average 3.3 drugs per antibody) VH: EVQLLESGGGLVQPGGSLRLSCAASGFTFSDYAMSWVRQAPGKGLEWVSVISSDGGSIYYADSVKGRFTISRDNSKNTLYLQMNSLRAEDTAVYYCAKDRSRDMEVDFDYWGQGTLVTVSS VL: QSVLTQPPSASGTPGQRVTISCSGSSSNIGSNYVTWYQQLPGTAPKLLIYDSSQRPSGVPDRFSGSKSGTSASLAISGLRSEDEADYYCGTWDYSLSGYVFGGGTKLTVL
0.8 | – | – | – | P015004 (antibody, V domains shown) VH: EVQLLESGGGLVQPGGSLRLSCAASGFTFSDYAMAWVRQAPGKGLEWVSIIYPGDSETIYSPSFEGRFTISRDNSKNTLYLQMNSLRAEDTAVYYCARDTYWEGYFDLWGQGTLVTVSS VL: EIVLTQSPGTLSLSPGERATLSCRASQGISNYLAWYQQKPGQAPRLLIYDASNLESGIPDRFSGSGSGTDFTLTISRLEPEDFAVYYCQQYANLPYTFGQGTKVEIK
2 | – | 80.3 | – | P015004-vc-PAB-MMAE (antibody, IgG1, V domains shown, maleimidocaproyl-valine-citrulline-p-aminobenzyloxycarbonyl monomethyl auristatin E on cysteine sulfhydryls of reduced disulfides; positions not given; average 3.0 drugs per antibody) VH: EVQLLESGGGLVQPGGSLRLSCAASGFTFSDYAMAWVRQAPGKGLEWVSIIYPGDSETIYSPSFEGRFTISRDNSKNTLYLQMNSLRAEDTAVYYCARDTYWEGYFDLWGQGTLVTVSS VL: EIVLTQSPGTLSLSPGERATLSCRASQGISNYLAWYQQKPGQAPRLLIYDASNLESGIPDRFSGSGSGTDFTLTISRLEPEDFAVYYCQQYANLPYTFGQGTKVEIK
0.8 | – | – | – | P015044 (antibody, V domains shown) VH: EVQLLESGGGLVQPGGSLRLSCAASGFTFSNYAMHWVRQAPGKGLEWVSIIYPDDDTRYNPSFRGRFTISRDNSKNTLYLQMNSLRAEDTAVYYCARDLLYAGDYWGQGTLVTVSS VL: QSVLTQPPSASGTPGQRVTISCGGNNIESKAVHWYQQLPGTAPKLLIYANNKRPSGVPDRFSGSKSGTSASLAISGLRSEDEADYYCQSYDSNKVVFGGGTKLTVL
2 | – | – | 82.7 | P015044-vc-PAB-MMAE (antibody, IgG1, V domains shown, maleimidocaproyl-valine-citrulline-p-aminobenzyloxycarbonyl monomethyl auristatin E on cysteine sulfhydryls of reduced disulfides; positions not given; average 3.0 drugs per antibody) VH: EVQLLESGGGLVQPGGSLRLSCAASGFTFSNYAMHWVRQAPGKGLEWVSIIYPDDDTRYNPSFRGRFTISRDNSKNTLYLQMNSLRAEDTAVYYCARDLLYAGDYWGQGTLVTVSS VL: QSVLTQPPSASGTPGQRVTISCGGNNIESKAVHWYQQLPGTAPKLLIYANNKRPSGVPDRFSGSKSGTSASLAISGLRSEDEADYYCQSYDSNKVVFGGGTKLTVL
